Results from paper doi:10.1101/2024.10.18.618978v3.

B1: SpeG (Staphylococcus aureus subsp. aureus USA300) (protein)
chain: MKLRALEYSDLLFVHELNNEYSIMSYWFEEPYESLTELQHLFDKHLLDESERRFIVEDENQVVGIVELVEINYIHRNCEIQIIIKPEFSGKGYAKFAFEKAIIYAFNILNMHKIYLYVDADNKKAIHIYESQGFKTEGLLKEQFYTKGKYKDAYFMSLLKSEYIL
B2: PaiASa (Staphylococcus aureus subsp. aureus USA300) (protein)
chain: MAGIIKEISEQNASELVELATRTFYDTFGSYYDDKDFDQFFKDNYTVEKFTQEINHVDSFHYFYQEDGANVGYIKMNINSAQTEEMGETYLEVQRIYFLKDFQGGGRGSQLIELAEKIAQEHNKHKIWLGVWEHNPRAQAFYKRHGFKVVGEHHFQTGDVTDTDLIMEKEL

Assays:
purified protein = substrate: NCCCNCCCCNCCCN; assay: purified protein; conditions: 1 mM AcCoA, pH 7.5, 37 °C
[1] = substrate: NCCCNCCCCNCCCN; assay: colorimetric DTNB SSAT assay; format: biochemical, Staphylococcus aureus; conditions: 1 mM AcCoA, pH 7.5, 37 °C, approximate value given in Methods

Protein	Km (purified protein; Michaelis-Menten fit) [µM]	K0.5 (purified protein; allosteric sigmoidal fit) [µM]	Km [1] [µM]
B1	1312 ± 348.1	757.5 ± 63.35	–
B2	–	–	2000
